Experimental data: the Human Domainome abundance scans (Beltran et al. 2025)
± gives the uncertainty stated by the source.

B1: Dynamin-binding protein, residues 242 to 304; numbered along this chain, Q6XZF7 (parent)
chain: EEPGTYGVALYRFQALEPNELDFEVGDKIRILATLEDGWLEGSLKGRTGIFPYRFVKLCPDTR

Variants of: B1
Assay: abundance fitness (aPCA) (normalised: wild type 0, dead -1); higher = more abundant; growth selection in yeast, the domain comes from the species named
Settings: Homo sapiens

Row | Variant | abundance fitness
1 | EEPGTYGVALYRFQALEPNELDFEVGDKIRILATLEDRWLEGSLKGRTGIFPYRFVKLCPDTR | -0.482 ± 0.09
2 | EEPGTYGVALYRFQALEPNELDFEVGDKIRILATLEDFWLEGSLKGRTGIFPYRFVKLCPDTR | -0.71 ± 0.11
3 | EEPGTYGVALYRFQALEPNELDFEVGDKIRILATLADGWLEGSLKGRTGIFPYRFVKLCPDTR | 0.027 ± 0.063
4 | EEPGTYGVALYRFQALEPNELDFEVGDKIRILATLTDGWLEGSLKGRTGIFPYRFVKLCPDTR | -0.277 ± 0.089
5 | EEPGTYGVALYRFQALEPNELDFEVGDKIRILATLSDGWLEGSLKGRTGIFPYRFVKLCPDTR | -0.212 ± 0.054
6 | EEPGTYGVALYRFQALEPNELDFEVGDKIRILATLCDGWLEGSLKGRTGIFPYRFVKLCPDTR | -0.434 ± 0.072
7 | EEPGTYGVALYRFQALEPNELDFEVGDKIRILATLNDGWLEGSLKGRTGIFPYRFVKLCPDTR | -0.156 ± 0.067
8 | EEPGTYGVALYRFQALEPNELDFEVGDKIRILATLRDGWLEGSLKGRTGIFPYRFVKLCPDTR | -0.331 ± 0.062
9 | EEPGTYGVALYRFQALEPNELDFEVGDKIRILATLFDGWLEGSLKGRTGIFPYRFVKLCPDTR | -0.711 ± 0.1
10 | EEPGTYGVALYRFQALEPNELDFEVGDKIRILATLPDGWLEGSLKGRTGIFPYRFVKLCPDTR | -0.171 ± 0.099
11 | EEPGTYGVALYRFQALEPNELDFEVGDKIRILATLWDGWLEGSLKGRTGIFPYRFVKLCPDTR | -0.612 ± 0.18
12 | EEPGTYGVALYRFQALEPNELDFEVGDKIRILATLKDGWLEGSLKGRTGIFPYRFVKLCPDTR | -0.099 ± 0.12
13 | EEPGTYGVALYRFQALEPNELDFEVGDKIRILATLLDGWLEGSLKGRTGIFPYRFVKLCPDTR | -0.698 ± 0.1
14 | EEPGTYGVALYRFQALEPNELDFEVGDKIRILATLVDGWLEGSLKGRTGIFPYRFVKLCPDTR | -0.777 ± 0.093
15 | EEPGTYGVALYRFQALEPNELDFEVGDKIRILATLIDGWLEGSLKGRTGIFPYRFVKLCPDTR | -1.02 ± 0.16
16 | EEPGTYGVALYRFQALEPNELDFEVGDKIRILATLGDGWLEGSLKGRTGIFPYRFVKLCPDTR | -0.167 ± 0.056
17 | EEPGTYGVALYRFQALEPNELDFEVGDKIRILATLQDGWLEGSLKGRTGIFPYRFVKLCPDTR | -0.312 ± 0.24
18 | EEPGTYGVALYRFQALEPNELDFEVGDKIRILATLEDGKLEGSLKGRTGIFPYRFVKLCPDTR | -0.395 ± 0.17
19 | EEPGTYGVALYRFQALEPNELDFEVGDKIRILATLEDGGLEGSLKGRTGIFPYRFVKLCPDTR | -0.714 ± 0.092
20 | EEPGTYGVALYRFQALEPNELDFEVGDKIRILATLEDGDLEGSLKGRTGIFPYRFVKLCPDTR | -0.661 ± 0.11
21 | EEPGTYGVALYRFQALEPNELDFEVGDKIRILATLEDGHLEGSLKGRTGIFPYRFVKLCPDTR | -0.749 ± 0.13
22 | EEPGTYGVALYRFQALEPNELDFEVGDKIRILATLEDGILEGSLKGRTGIFPYRFVKLCPDTR | -0.546 ± 0.075

Row | Variant | abundance fitness
23 | EEPGTYGVALYRFQALEPNELDFEVGDKIRILATLEDGFLEGSLKGRTGIFPYRFVKLCPDTR | -0.168 ± 0.073
24 | EEPGTYGVALYRFQALEPNELDFEVGDKIRILATLEDGALEGSLKGRTGIFPYRFVKLCPDTR | -0.56 ± 0.085
25 | EEPGTYGVALYRFQALEPNELDFEVGDKIRILATLEDGELEGSLKGRTGIFPYRFVKLCPDTR | -0.379 ± 0.17
26 | EEPGTYGVALYRFQALEPNELDFEVGDKIRILATAEDGWLEGSLKGRTGIFPYRFVKLCPDTR | -0.304 ± 0.068
27 | EEPGTYGVALYRFQALEPNELDFEVGDKIRILATREDGWLEGSLKGRTGIFPYRFVKLCPDTR | 0.13 ± 0.052
28 | EEPGTYGVALYRFQALEPNELDFEVGDKIRILATMEDGWLEGSLKGRTGIFPYRFVKLCPDTR | -0.413 ± 0.19
29 | EEPGTYGVALYRFQALEPNELDFEVGDKIRILATDEDGWLEGSLKGRTGIFPYRFVKLCPDTR | -0.664 ± 0.087
30 | EEPGTYGVALYRFQALEPNELDFEVGDKIRILATCEDGWLEGSLKGRTGIFPYRFVKLCPDTR | -0.178 ± 0.053
31 | EEPGTYGVALYRFQALEPNELDFEVGDKIRILATTEDGWLEGSLKGRTGIFPYRFVKLCPDTR | -0.339 ± 0.082
32 | EEPGTYGVALYRFQALEPNELDFEVGDKIRILATNEDGWLEGSLKGRTGIFPYRFVKLCPDTR | -0.544 ± 0.087
33 | EEPGTYGVALYRFQALEPNELDFEVGDKIRILATFEDGWLEGSLKGRTGIFPYRFVKLCPDTR | -0.315 ± 0.071
34 | EEPGTYGVALYRFQALEPNELDFEVGDKIRILATHEDGWLEGSLKGRTGIFPYRFVKLCPDTR | -0.114 ± 0.071
35 | EEPGTYGVALYRFQALEPNELDFEVGDKIRILATYEDGWLEGSLKGRTGIFPYRFVKLCPDTR | -0.187 ± 0.059
36 | EEPGTYGVALYRFQALEPNELDFEVGDKIRILATGEDGWLEGSLKGRTGIFPYRFVKLCPDTR | -0.374 ± 0.055
37 | EEPGTYGVALYRFQALEPNELDFEVGDKIRILATIEDGWLEGSLKGRTGIFPYRFVKLCPDTR | -0.131 ± 0.063
38 | EEPGTYGVALYRFQALEPNELDFEVGDKIRILATSEDGWLEGSLKGRTGIFPYRFVKLCPDTR | -0.241 ± 0.051
39 | EEPGTYGVALYRFQALEPNELDFEVGDKIRILATVEDGWLEGSLKGRTGIFPYRFVKLCPDTR | -0.203 ± 0.05
40 | EEPGTYGVALYRFQALEPNELDFEVGDKIRILATEEDGWLEGSLKGRTGIFPYRFVKLCPDTR | -0.876 ± 0.4
41 | EEPGTYGVALYRFQALEPNELDFEVGDKIRILATQEDGWLEGSLKGRTGIFPYRFVKLCPDTR | 0.009 ± 0.23
42 | EEPGTYGVALYRFQALEPNELDFEVGDKIRILATWEDGWLEGSLKGRTGIFPYRFVKLCPDTR | -0.642 ± 0.21
43 | EEPGTYGVALYRFQALEPNELDFEVGDKIRILATKEDGWLEGSLKGRTGIFPYRFVKLCPDTR | 0.137 ± 0.13
